Molecular target: the molecule itself
Experiment: cryo-EM structure

B1: Roseospirillum parvum LH1 αβ-polypeptide pair (complex)
chain 1: not shown
chain 2: MATTENVTSSTGLTEAEAKEFHAVYSQSAAGFLAVCAVAHVLAWMWRPFWPGAEGWVMDTAQNLTFLA
stoichiometry N: 16

From publication PMC11659472 (Communications Biology, 2024)
